Assay results published in PMC7954794, “Protein context shapes the specificity of SH3 domain-mediated interactions in vivo” (Nature Communications, 2021).

Columns and labels:
Format in all cases: cell-based, Saccharomyces cerevisiae
ABP1 = test: DHFR-PCA on solid medium, bait ABP1 (Fig. 1B); details: bait ABP1, label = prey; for medrep (log2 median colony size normalized to plate background, PCA score): 2-4 replicates; for Ratio (SH3-deleted/WT medrep): only significant differences showed, PPIs completely lost have a ratio of 0.1 and the gained PPIs 2.5
Text: (§1) Supplement 41467_2021_21873_MOESM8_ESM.xlsx, sheet "Fig1B" | column: medsize; medrep; Ratio; Score

BBC1 = test: DHFR-PCA on solid medium, bait BBC1 (Fig. 1B); details: bait BBC1, label = prey; for medrep (log2 median colony size normalized to plate background, PCA score): 2-4 replicates
Text: as §1

BEM1-1 = test: DHFR-PCA on solid medium, bait BEM1-1 (Fig. 1B); details: bait BEM1-1, label = prey; for medrep (log2 median colony size normalized to plate background, PCA score): 2-8 replicates
Text: as §1

BEM1-2 = test: DHFR-PCA on solid medium, bait BEM1-2 (Fig. 1B); details: bait BEM1-2, label = prey; for medrep (log2 median colony size normalized to plate background, PCA score): 2-8 replicates
Text: as §1

BOI1 = test: DHFR-PCA on solid medium, bait BOI1 (Fig. 1B); details: bait BOI1, label = prey; 3-8 replicates
Text: as §1

BOI2 = test: DHFR-PCA on solid medium, bait BOI2 (Fig. 1B); details: bait BOI2, label = prey; 3-8 replicates
Text: as §1

BUD14 = test: DHFR-PCA on solid medium, bait BUD14 (Fig. 1B); details: bait BUD14, label = prey; 4 replicates
Text: as §1

[1] = tested on: 575 putative partners (preys) of 22 WT SH3-containing proteins; test: DHFR-PCA on solid medium, WT and SH3-deleted baits (Fig. 1B); parameters: key to Score: 0: SH3-independent; 1: SH3-dependent PPIs; 2: SH3-inhibited PPIs; details: for medrep (log2 median colony size normalized to plate background, PCA score): label = prey
Procedure, shortened: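 In S. cerevisiae, 22 SH3-containing baits fused genomically to DHFR F[1,2], either WT or with each SH3 replaced via CRISPR by a poly-Gly/Ser linker, screened against 575 DHFR F[3] preys plus 40 negative controls in 1536 arrays, preys duplicated at randomized positions.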

[2] = tested on: SH3-deleted bait proteins (1xFLAG); test: Western blot expression level of SH3-deleted baits (Fig. S1F-G); details: Western blot Flag signal, 1xFLAG-tagged WT or SH3-deleted bait; sheet FigS1F-G
Procedure: Precultures of yeast cells expressing baits fused with the DHFR F[1,2]-FLAG were grown overnight at 30 °C with agitation in synthetic complete medium. The next day, cells were expanded in synthetic complete medium to reach their exponential phase (OD600 of around 1.0), pelleted, and frozen at −80 °C. The equivalent of fifty OD600 of cells was resuspended in ice-cold yeast lysis buffer (10 mM Tris-HCl pH 7.4, 150 mM NaCl, 0.5 mM EDTA (Millipore Sigma), 1% Triton X-100 (Millipore Sigma), and one cOmplete Mini Protease Inhibitor Cocktail (Millipore Sigma) per 10 mL) with […] glass beads (Millipore Sigma) and disrupted at 4 °C by 10 cycles of 2 min vortexing and 2 min cooldown. The equivalent of […] of lysed cells was used for the immunoprecipitation of the bait proteins using FLAG-M2 agarose beads (Millipore Sigma). The beads were incubated with the cell lysates for 120 min at 4 °C with a slow rotation, followed by three washes with the yeast lysis buffer.
Protein extracts and affinity-purified baits from yeast and human lysed cells were migrated on 10% polyacrylamide gels. The separated proteins were then transferred to nitrocellulose membranes. Validation of correct protein loading was done with ponceau staining of the membranes. Before the primary antibody incubations, membranes were blocked in 5% milk. Protein signals were detected on an Amersham Imager 600RGB (GE Healthcare) following the incubation of the membranes with the appropriate HRP-conjugated secondary antibodies and the Clarity Western ECL Substrate (Bio-Rad). The antibodies used in this study are M2-HRP (A8592, Sigma, 1/50,000), rabbit anti-FLAG (F7425, Sigma, 1/1000), PAK (SC-881, Santa Cruz, 1/200), p130cas/BCAR1 (SC-860, Santa Cruz, 1/200), actin (Cell Signaling Technology, 1/2000), anti-mouse HRP (Cell Signaling Technology, 1/10,000) and anti-rabbit HRP (Cell Signaling Technology, 1/10,000). The quantification of the WB signals was performed with the Amersham Imager 600 analysis software (GE Healthcare).

[3] = bait SLA1-3, DHFR-PCA, Replicates 4 (2 for YCR009C, YDR388W, YIL033C)
[4] = only significant differences showed, PPIs completely lost have a ratio of 0.1 and the gained PPIs 2.5

B1: YLR332W (protein, UniProt P36027 26-376, looked up)
Cell wall integrity sensor …: QFFVQSSSSNSSAVSTARSSVSRVSSSSSILSSSMVSSSSADSSSLTSSTSSRSLVSHTSSSTSIASISFTSFSFSSDSSTSSSSSASSDSSSSSSFSISSTSATSESSTSSTQTSTSSSSSLSSTPSSSSSPSTITSAPSTSSTPSTTAYNQGSTITSIINGKTILSNHYTTVTYTPSATADSSNKSKSSGLSKKNRNIVIGCVVGIGVPLILVILALIYMFCIQSSRTDFIDSDGKVVTAYRANKFTKWWYMLLGKKVSDEYHSDSPLGGSASSAGGLDLDEADDVMEQSSLFDVRIRDSDSVLPNANTADHNNTNSGGEPINSSVASNDIIEEKFYDEQGNELSPRNY
medrep (log2 median colony size normalized to plate background, PCA score) (ABP1): 3.345 | Ratio (SH3-deleted/WT medrep) (ABP1): 1.326 | medrep (log2 median colony size normalized to plate background, PCA score) (BBC1): 4.7031 | medrep (log2 median colony size normalized to plate background, PCA score) (BEM1-1): 4.445 | medrep (log2 median colony size normalized to plate background, PCA score) (BEM1-2): 4.445 | medrep (log2 median colony size normalized to plate background, PCA score) (BOI1): 3.534 | medrep (log2 median colony size normalized to plate background, PCA score) (BOI2): 4.169 | medrep (log2 median colony size normalized to plate background, PCA score) (BUD14): 1.439

B2: YCR030C (protein, UniProt P25623 1-870, looked up)
Suppressor of yeast profilin …: MTEQRTKYADSILTTKSPYEATETIRIRLSQVKLLNKDFYLLFKELANLKRNYAQQLRKIIAENEDITKILNAQMIESNVLTPQEMSAFRFNSLGELRNVWDTVIEELKSDLKSSTEYYNTLDQQVVRELKESVENNTSWRESKDLHSKLSKNAASIEHYSKNNENSSHLEEARRQWDQQSPYLFELFETIDYNRLDTLKNCMLRFQTSFSDYLLNTTKECETVMTKFLAFEPQSEIDRFAKDASQYNFQLSSSSKEVVPNNASPASATGARPVSVSNGAANTEREKKSPQKDKRKSAFGNIGHRLASASSSLTHNDLMNNEFSDSTNNSSLKSKKSSHTLRSKVGSIFGRNKTKNKRQQQSSSNSHIQASITETPNNSSTRVSSTATSSIYQKQRRPTYSSSKSNNWTPGEASDTPPLPPHATPKNVDAPVTADTPPAQTFTPSEVPPSTPQQSSPPTAKEPDSSNLPKTVPISISQPPLQPQSKTKPLPVEPASPSISLPTATVDNQPSGQVDSRPLHIRAPALPPSRKQNFIHNRDSQLYDSLPNHGSGATPTSSSLSSIPQERPVSTLSSQITGELRELNPQATGSSTSLVGQSLFQHSSLDTSQFGLNASIAEVLNASFKDGMLQNSQLIGEIALNYLPNSVMNSPLPIGINLRINNGAKFEKVILNQAFIERVAPEEFKVNPSFIDSRTLGAIKYSIKEPIAPIVIHPVWRFESHQASVVLTVKMSPSLPDEISQIVIEDLVVFVNIDGANATSALSKPQGSFSKEKKRITWRFKEPVVLTRNGEGQRLIARFITDGLAHESAKGVITKFTISETDNVALPHSGAGSGITLTCQELDENNPFGGEWLDVNTKRTLTTGNYHGLA
medrep (log2 median colony size normalized to plate background, PCA score) ([1]; bait SLA1-2, DHFR-PCA, Replicates 4 (2 for YCR009C, YDR388W)): 3.1776 | Score ([1]; bait SLA1-2, label = prey): 1 | Ratio (SH3-deleted/WT medrep) ([1]; bait SLA1-2, label = prey, only significant differences shown, PPIs completely lost have a ratio of 0.1, gained PPIs 2.5): 0.1 | medrep (log2 median colony size normalized to plate background, PCA score) [1, 3]: 3.1776 | Score ([1]; bait SLA1-3, label = prey): 0 | medrep (log2 median colony size normalized to plate background, PCA score) (ABP1): 2.201 | medrep (log2 median colony size normalized to plate background, PCA score) (BEM1-1): 2.035 | Ratio (SH3-deleted/WT medrep) (BEM1-1; [4]): 0.1 | medrep (log2 median colony size normalized to plate background, PCA score) (BEM1-2): 2.035 | Ratio (SH3-deleted/WT medrep) (BEM1-2; [4]): 0.1 | medrep (log2 median colony size normalized to plate background, PCA score) (BUD14): 2.234

B3: YKL117W (protein, UniProt P28707 2-216, looked up)
Co-chaperone protein SBA1: SDKVINPQVAWAQRSSTTDPERNYVLITVSIADCDAPELTIKPSYIELKAQSKPHVGDENVHHYQLHIDLYKEIIPEKTMHKVANGQHYFLKLYKKDLESEYWPRLTKEKVKYPYIKTDFDKWVDEDEQDEVEAEGNDAAQGMDFSQMMGGAGGAGGAGGMDFSQMMGGAGGAGSPDMAQLQQLLAQSGGNLDMGDFKENDEEDEEEEIEPEVKA
medrep (log2 median colony size normalized to plate background, PCA score) [1, 3]: 4.6716 | Score ([1]; bait SLA1-3, label = prey): 0 | medrep (log2 median colony size normalized to plate background, PCA score) (ABP1): 3.786 | Ratio (SH3-deleted/WT medrep) (ABP1): 1.319 | medrep (log2 median colony size normalized to plate background, PCA score) (BBC1): 1.6151 | Ratio (SH3-deleted/WT medrep) (BBC1; [4]): 0.1 | medrep (log2 median colony size normalized to plate background, PCA score) (BUD14): 3.847

B4: Nbp2 WT (protein, UniProt Q12163 1-236, looked up)
NAP1-binding protein 2: MATMETTTQKDTNILKSGLKKTIGVLNEAVLQNGREVEAVQAGNSDTMEDTETTTIGYISIKDYAYADSNPLHYGYFDGDNEEDEMVSDSSNGEDTYNKRQSITLPDDYIVNQRAVALYDFEPENDNELRLAEGDIVFISYKHGQGWLVAENESGSKTGLVPEEFVSYIQPEDGENEVENKARPFYLTHLITQSVSPKNNIDNTNEDEYDDNDEWEDIDDVAEVEADMKTKLDISD
Flag [2]: 158710

B5: Pin3 WT (protein, UniProt Q06449 2-215, looked up)
[PSI+] inducibility protein 3: SASLINRSLTNIRTELDFLKGSNVISNDVYDQINKSLPAKWDPANAPRNASPASLEYVEALYQFDPQQDGDLGLKPGDKVQLLEKLSPEWYKGSCNGRTGIFPANYVKPAFSGSNGPSNLPPPPQYKAQELQQIPTQNSAASSYQQQPFPPPSTNYYQQPQQQPQQAPPPQQQQQQQQHQSSHSHLKSFGSKLGNAAIFGAGASIGSDIVNNIF
Flag [2]: 304553

B6: Boi2 WT (protein, UniProt P39969 1-1040, looked up)
BEM1-interacting protein 2: MSNDREVPTLSQLNTTVSRDKDVSDTLSPDFDSKGSATGRDGGNFPMYIAINEYFKRMEDELDMKPGDKIKVITDDEEYKDGWYFGRNLRTNEEGLYPVVFTQKITVEKAPTLMRAKSTKRIYSPLTNEDPLLSSTFISENDSNSELPTPQPIETAASISRTANGKIERNLSLKNTMSDIDNALLEFKDDSIGPPDRFINSGRDEEHSITHETILSATDGLDVVESNSKPTTSSSTGFLNGDLENQATLINGIDTTKLNPVEAEFWSPEEITAYFIMEGYDVQSASRFQKHKISGKILLELELVHLKELDINSFGTRFEIFKEIEKIKEAIRTNGRSLNRASKTNNANIYNQLMPPANVDQRASYRGHVRKTSQSLEDLPSQQNFIPTPRNTRNSSASKHRPKSLVFDSQEANANIAPDVQIPQVVEEMAGNENLFVSPRRAPKPPSYPSPAQPPKSPLLNNTRTSPSPAQLYSWQSPTLSFSGPKRTSYIDQYSSSDSNFNSRSALPKNNQGGGKALSPIPSPTRNSVRNEDSEGKLTSSSKRNSVPYYGYAPESSSDRKSSCSSHEEEQFQETMNTFERPTSSIYADGSTIASISNDKLAHEKEGKKKPTRHSSSLSSKSKSDSRRNSSLKRSSSASRTSSFKKSSFMLSPFRQQFTDNAARSSSPEENPITSMPSEKNSSPIVDKKSSKKSRSKRRSVSAKEAEIFTETVKDDKNKRSASEAIKGETLKGKSLRQMTARPVAKKKQTSAFIEGLRSISVKEAMKDADFSGWMSKKGSGAMSTWKTRFFTLHGTRLSYFSSTTDTRERGLIDITAHRVVPAKEDDKLVSLYAASTGKGRYCFKLLPPQPGSKKGLTFTQPRTHYFAVDNKEEMRGWMAALIKTTIDIDTSVPIISSYTTPTVSLSKAQEMLAEAREETKLREQQMLENEEDEDQFLWDQQQLQQQQHDNNQGQADRTISASTQRTSDEDNTISTPNLSSANNTTIGSNGFSSPFLLASGLLSPGVARNSSMRGTEKKGKFSTEEDYFGDNSKHKTDKI
Flag [2]: 12024
